The chains are these.
B1: SFRS1 (parent)
chain: YSPRRSRGSPRYSPRHSRSRSRT

97 variants from the supplement of paper PMC10567573 can be followed below.
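Also: lentivirally expressed fusions sorted by FACS into six bins by GFP to DsRed ratio, PSI derived from sequencing read proportions per bin multiplied by bin number.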

The variants in the data set derive from B1. Put plainly: protein stability index of a GFP-peptide fusion (GPS, HEK-293T) (PSI 1-6); higher = more stable. The following applies: c terminus: native.
In the case of YSPRRHRGSPRYSPRHSRSRSRT, the protein stability index was determined as 3.66.

Consider YSPRRYRGSPRYSPRHSRSRSRT, for which the protein stability index was determined as 3.29.

Turning to YSPRRKRGSPRYSPRHSRSRSRT, the protein stability index was 3.01.

On to YSPRRDRGSPRYSPRHSRSRSRT, for which the protein stability index stood at 3.83.

Take YSPRRVRGSPRYSPRHSRSRSRT: the protein stability index came out at 3.09.

Take YSPRRTRGSPRYSPRHSRSRSRT: the protein stability index is 4.02.

YSPRRIRGSPRYSPRHSRSRSRT: the protein stability index was found to be 3.22.

Consider YSPRRRRGSPRYSPRHSRSRSRT, for which the protein stability index amounted to 4.01.

With YSPRRWRGSPRYSPRHSRSRSRT, the protein stability index was 3.43.

For the variant YSPRRFRGSPRYSPRHSRSRSRT, the protein stability index was 3.27.

Take YSPRRGRGSPRYSPRHSRSRSRT: the protein stability index amounted to 3.55.

For the variant YSPRRNRGSPRYSPRHSRSRSRT, the protein stability index stood at 3.97.

In the case of YSPRRCRGSPRYSPRHSRSRSRT, the protein stability index turned out to be 2.81.

YSPRRPRGSPRYSPRHSRSRSRT: the protein stability index was 4.39.

Turning to YSPRRQRGSPRYSPRHSRSRSRT, the protein stability index was 4.33.

As to YSPRRLRGSPRYSPRHSRSRSRT, the protein stability index was 2.65.

Regarding YSPRRERGSPRYSPRHSRSRSRT, the protein stability index is 3.26.

Consider YSPRRMRGSPRYSPRHSRSRSRT, for which the protein stability index was 3.56.

For the variant YSPRRARGSPRYSPRHSRSRSRT, the protein stability index was 4.13.

Consider YSPSRSRGSPRYSPRHSRSRSRT, for which the protein stability index amounted to 3.56.

As to YSPVRSRGSPRYSPRHSRSRSRT, the protein stability index is 3.24.

As to YSPLRSRGSPRYSPRHSRSRSRT, the protein stability index came to 2.76.

Regarding YSPQRSRGSPRYSPRHSRSRSRT, the protein stability index worked out at 3.53.

Turning to YSPGRSRGSPRYSPRHSRSRSRT, the protein stability index was 3.82.

Take YSPERSRGSPRYSPRHSRSRSRT: the protein stability index is 3.12.

Consider YSPDRSRGSPRYSPRHSRSRSRT, for which the protein stability index is 2.74.

As for YSPMRSRGSPRYSPRHSRSRSRT, the protein stability index worked out at 2.76.

On to YSPPRSRGSPRYSPRHSRSRSRT, for which the protein stability index turned out to be 3.36.

For the variant YSPFRSRGSPRYSPRHSRSRSRT, the protein stability index was determined as 2.57.

In the case of YSPARSRGSPRYSPRHSRSRSRT, the protein stability index worked out at 2.82.

YSPTRSRGSPRYSPRHSRSRSRT: the protein stability index stood at 2.83.

YSPCRSRGSPRYSPRHSRSRSRT: the protein stability index is 2.28.

Consider YSPYRSRGSPRYSPRHSRSRSRT, for which the protein stability index turned out to be 2.56.

As for YSPIRSRGSPRYSPRHSRSRSRT, the protein stability index was 2.65.

Turning to YSPKRSRGSPRYSPRHSRSRSRT, the protein stability index was determined as 3.71.

As to YSPWRSRGSPRYSPRHSRSRSRT, the protein stability index amounted to 2.38.

For YSPNRSRGSPRYSPRHSRSRSRT, the protein stability index was 3.13.

With YSPHRSRGSPRYSPRHSRSRSRT, the protein stability index worked out at 3.29.

On to YSPRRSRQSPRYSPRHSRSRSRT, for which the protein stability index was determined as 3.53.

In the case of YSPRRSRLSPRYSPRHSRSRSRT, the protein stability index came out at 3.

YSPRRSRESPRYSPRHSRSRSRT: the protein stability index came to 3.44.

In the case of YSPRRSRDSPRYSPRHSRSRSRT, the protein stability index came to 3.45.

With YSPRRSRYSPRYSPRHSRSRSRT, the protein stability index worked out at 3.05.

As to YSPRRSRRSPRYSPRHSRSRSRT, the protein stability index was determined as 4.58.

Regarding YSPRRSRSSPRYSPRHSRSRSRT, the protein stability index turned out to be 4.32.

On to YSPRRSRNSPRYSPRHSRSRSRT, for which the protein stability index was found to be 3.7.

Regarding YSPRRSRWSPRYSPRHSRSRSRT, the protein stability index worked out at 2.25.

Turning to YSPRRSRPSPRYSPRHSRSRSRT, the protein stability index is 3.5.

Turning to YSPRRSRKSPRYSPRHSRSRSRT, the protein stability index was 3.98.

Turning to YSPRRSRTSPRYSPRHSRSRSRT, the protein stability index came to 3.79.

With YSPRRSRCSPRYSPRHSRSRSRT, the protein stability index worked out at 2.98.

With YSPRRSRMSPRYSPRHSRSRSRT, the protein stability index came to 3.19.

As to YSPRRSRASPRYSPRHSRSRSRT, the protein stability index is 4.22.

In the case of YSPRRSRISPRYSPRHSRSRSRT, the protein stability index turned out to be 3.46.

Take YSPRRSRHSPRYSPRHSRSRSRT: the protein stability index amounted to 3.55.

On to YSPRRSRFSPRYSPRHSRSRSRT, for which the protein stability index turned out to be 2.13.

Consider YSPRRSRVSPRYSPRHSRSRSRT, for which the protein stability index was 3.31.

For the variant YSYRRSRGSPRYSPRHSRSRSRT, the protein stability index stood at 4.24.

On to YSWRRSRGSPRYSPRHSRSRSRT, for which the protein stability index came to 3.11.

YSTRRSRGSPRYSPRHSRSRSRT: the protein stability index is 4.22.

YSSRRSRGSPRYSPRHSRSRSRT: the protein stability index was 4.21.

For the variant YSRRRSRGSPRYSPRHSRSRSRT, the protein stability index worked out at 4.27.

As for YSVRRSRGSPRYSPRHSRSRSRT, the protein stability index was 4.06.

Take YSPRRSRGSPRYNPRHSRSRSRT: the protein stability index was 3.64.

As for YSPRRSRGSPRYRPRHSRSRSRT, the protein stability index was determined as 4.11.

As to YSPRRSRGSPRYCPRHSRSRSRT, the protein stability index is 1.35.

For YSPRRSRGSPRYEPRHSRSRSRT, the protein stability index was determined as 4.01.

Consider YSPRRSRGSPRYFPRHSRSRSRT, for which the protein stability index came to 3.59.

In the case of YSPRRSRGSPRYPPRHSRSRSRT, the protein stability index turned out to be 3.55.

For YSPRRSRGSPRYKPRHSRSRSRT, the protein stability index turned out to be 4.64.

Consider YSPRRSRGSPRYQPRHSRSRSRT, for which the protein stability index came out at 3.76.

With YSPRRSRGSPRYWPRHSRSRSRT, the protein stability index came out at 2.9.

Take YSPRRSRGSPRYAPRHSRSRSRT: the protein stability index turned out to be 3.41.

As for YSPRRSRGSPRYLPRHSRSRSRT, the protein stability index is 3.89.

For YSPRRSRGSPRYGPRHSRSRSRT, the protein stability index was 4.41.

On to YSPRRSRGSPRYDPRHSRSRSRT, for which the protein stability index is 3.72.

In the case of YSPRRSRGSPRYIPRHSRSRSRT, the protein stability index amounted to 3.71.

Take YSPRRSRGSPRYVPRHSRSRSRT: the protein stability index was found to be 3.37.

Consider YSPRRSRGSPRYHPRHSRSRSRT, for which the protein stability index stood at 3.62.

Turning to YSPRRSRGSPRYMPRHSRSRSRT, the protein stability index turned out to be 3.82.

YSPRRSRGSPRYTPRHSRSRSRT: the protein stability index came to 3.63.

With YSPRGSRGSPRYSPRHSRSRSRT, the protein stability index was 3.

As for YSPRFSRGSPRYSPRHSRSRSRT, the protein stability index came to 2.52.

Turning to YSPRVSRGSPRYSPRHSRSRSRT, the protein stability index came out at 2.87.

Regarding YSPRWSRGSPRYSPRHSRSRSRT, the protein stability index amounted to 1.84.

For YSPRNSRGSPRYSPRHSRSRSRT, the protein stability index was determined as 3.24.

As for YSPRKSRGSPRYSPRHSRSRSRT, the protein stability index was 3.14.

With YSPRASRGSPRYSPRHSRSRSRT, the protein stability index was 3.98.

On to YSPRQSRGSPRYSPRHSRSRSRT, for which the protein stability index is 3.5.

On to YSPRTSRGSPRYSPRHSRSRSRT, for which the protein stability index was found to be 2.8.

In the case of YSPRSSRGSPRYSPRHSRSRSRT, the protein stability index turned out to be 3.76.

As to YSPRMSRGSPRYSPRHSRSRSRT, the protein stability index turned out to be 3.58.

For YSPRHSRGSPRYSPRHSRSRSRT, the protein stability index was 4.37.

On to YSPRDSRGSPRYSPRHSRSRSRT, for which the protein stability index is 3.53.

Take YSPRPSRGSPRYSPRHSRSRSRT: the protein stability index worked out at 2.75.

As for YSPRCSRGSPRYSPRHSRSRSRT, the protein stability index is 2.92.

As to YSPRISRGSPRYSPRHSRSRSRT, the protein stability index amounted to 2.33.
